According to patent publication US20030170203A1 (Human Genome Sciences, published 2003):

Assays:
Test in all cases: flow cytometry on transiently transfected cells
[1] = molecular target: T1, DR4 on transiently transfected cells (UniProt O00220 24-468, limits assumed)
T1 construct: whole, on cells
T1 sequence (looked up): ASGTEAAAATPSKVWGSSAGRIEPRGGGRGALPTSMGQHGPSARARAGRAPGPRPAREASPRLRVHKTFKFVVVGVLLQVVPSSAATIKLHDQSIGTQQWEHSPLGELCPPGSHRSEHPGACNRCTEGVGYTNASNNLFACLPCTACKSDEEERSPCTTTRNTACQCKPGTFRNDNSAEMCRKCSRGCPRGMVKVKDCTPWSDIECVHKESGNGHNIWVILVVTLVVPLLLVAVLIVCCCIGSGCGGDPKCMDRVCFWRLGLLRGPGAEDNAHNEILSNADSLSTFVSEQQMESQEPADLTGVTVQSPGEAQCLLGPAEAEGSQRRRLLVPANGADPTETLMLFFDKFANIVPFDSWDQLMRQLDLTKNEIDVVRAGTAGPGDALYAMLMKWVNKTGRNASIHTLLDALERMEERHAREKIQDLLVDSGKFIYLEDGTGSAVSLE
Description: (§1) One million cells, in 0.1 ml of FACS buffer (PBS, 0.1% BSA, 0.1% NaN₃), were incubated with 0.1-1 microgram of protein or antibody at RT for 15 min. The cells were washed with 3 ml of FACS buffer, reacted with biotinylated primary antibody, and stained with PE-conjugated secondary antibody at RT for 15 min. Cells were then washed again, resuspended in 0.5 microgram/ml of propidium iodide, and live cells were gated and analyzed on a FACScan using the CellQuest software (BD Biosciences).

[2] = molecular target: T2, LTβR on transiently transfected cells (UniProt P36941 31-435, limits assumed)
T2 construct: whole, on cells
T2 sequence (P36941 31-435 limits assumed): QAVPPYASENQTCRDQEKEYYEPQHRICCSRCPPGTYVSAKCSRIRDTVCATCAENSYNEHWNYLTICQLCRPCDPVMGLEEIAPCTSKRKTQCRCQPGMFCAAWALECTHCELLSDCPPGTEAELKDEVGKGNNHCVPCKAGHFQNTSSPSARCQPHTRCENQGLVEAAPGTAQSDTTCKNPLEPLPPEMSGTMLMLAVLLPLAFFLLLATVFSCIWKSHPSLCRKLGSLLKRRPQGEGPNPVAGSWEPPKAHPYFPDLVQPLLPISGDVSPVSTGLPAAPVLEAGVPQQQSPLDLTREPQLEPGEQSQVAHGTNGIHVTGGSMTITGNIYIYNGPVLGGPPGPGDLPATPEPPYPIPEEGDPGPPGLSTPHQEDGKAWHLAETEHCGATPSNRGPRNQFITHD
Description: as §1

[3] = molecular target: T3, AITR on transiently transfected cells (UniProt Q9Y5U5 26-241, limits assumed)
T3 construct: whole, on cells
T3 sequence (looked up): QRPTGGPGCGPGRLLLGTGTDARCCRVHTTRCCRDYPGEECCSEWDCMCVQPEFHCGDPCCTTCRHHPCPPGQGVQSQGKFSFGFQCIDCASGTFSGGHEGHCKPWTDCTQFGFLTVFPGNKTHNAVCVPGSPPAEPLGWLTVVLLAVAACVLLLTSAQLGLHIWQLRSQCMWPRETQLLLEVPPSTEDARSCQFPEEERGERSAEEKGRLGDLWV
Description: as §1

[4] = molecular target: T4, DR6 on transiently transfected cells (UniProt O75509 42-655, limits assumed)
T4 construct: whole, on cells
T4 sequence (looked up): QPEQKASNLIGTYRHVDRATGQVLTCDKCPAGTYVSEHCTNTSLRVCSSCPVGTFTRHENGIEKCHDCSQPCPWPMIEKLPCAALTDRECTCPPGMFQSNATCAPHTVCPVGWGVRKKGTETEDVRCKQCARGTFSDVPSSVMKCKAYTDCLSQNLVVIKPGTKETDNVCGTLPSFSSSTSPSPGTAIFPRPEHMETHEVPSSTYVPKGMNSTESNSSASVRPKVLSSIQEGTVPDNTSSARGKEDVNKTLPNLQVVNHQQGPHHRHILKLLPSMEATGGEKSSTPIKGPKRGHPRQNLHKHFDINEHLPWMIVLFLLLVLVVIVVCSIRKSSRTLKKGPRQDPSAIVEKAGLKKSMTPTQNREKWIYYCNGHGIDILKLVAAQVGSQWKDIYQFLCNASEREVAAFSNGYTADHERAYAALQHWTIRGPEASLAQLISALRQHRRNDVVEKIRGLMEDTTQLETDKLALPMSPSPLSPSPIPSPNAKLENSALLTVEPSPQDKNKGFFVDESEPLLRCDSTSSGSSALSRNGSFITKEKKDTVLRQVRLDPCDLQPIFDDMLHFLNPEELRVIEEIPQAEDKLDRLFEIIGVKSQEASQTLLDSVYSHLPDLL
Description: as §1

[5] = molecular target: T5, TNFR2 on transiently transfected cells (UniProt P20333 23-461, limits assumed)
T5 construct: whole, on cells
T5 sequence (looked up): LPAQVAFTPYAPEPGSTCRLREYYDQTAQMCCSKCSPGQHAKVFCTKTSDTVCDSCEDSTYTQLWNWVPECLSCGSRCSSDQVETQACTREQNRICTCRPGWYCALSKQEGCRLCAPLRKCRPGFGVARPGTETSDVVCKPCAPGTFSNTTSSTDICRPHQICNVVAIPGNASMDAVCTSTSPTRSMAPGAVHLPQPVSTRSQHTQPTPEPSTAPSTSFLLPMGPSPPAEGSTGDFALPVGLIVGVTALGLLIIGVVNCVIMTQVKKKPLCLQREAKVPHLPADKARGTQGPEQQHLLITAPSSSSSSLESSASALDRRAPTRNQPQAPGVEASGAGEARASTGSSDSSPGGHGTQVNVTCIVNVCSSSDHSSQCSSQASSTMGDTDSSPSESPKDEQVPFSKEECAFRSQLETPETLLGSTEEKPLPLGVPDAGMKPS
Description: as §1

[6] = molecular target: T6, 4-1BB on transiently transfected cells (UniProt Q07011 24-255, limits assumed)
T6 construct: whole, on cells
T6 sequence (Q07011 24-255 limits assumed): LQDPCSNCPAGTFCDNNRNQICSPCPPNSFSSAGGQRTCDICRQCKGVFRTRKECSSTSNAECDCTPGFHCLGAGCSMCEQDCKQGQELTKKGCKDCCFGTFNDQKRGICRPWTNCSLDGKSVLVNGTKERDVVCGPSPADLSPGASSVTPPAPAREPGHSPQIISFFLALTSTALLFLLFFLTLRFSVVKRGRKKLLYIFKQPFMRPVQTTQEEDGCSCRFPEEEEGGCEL
Description: as §1

Measured: binding result

B1: FLAG-tagged soluble form of TNF-gamma-beta (aa 72-251) (ligand, human, UniProt O95150 72-251, looked up)
chain: LKGQEFAPSHQQVYAPLRADGDKPRAHLTVVRQTPTQHFKNQFPALHWEHELGLAFTKNRMNYTNKFLLIPESGDYFIYSQVTFRGMTSECSEIRQAGRPNKPDSITVVITKVTDSYPEPTQLLMGTKSVCEVGSNWFQPIYLGAMFSLQEGDKLMVNVSDISLVDYTKEDKTFFGAFLL
notes: also called FLAG-TL1β; FLAG-TNF-gamma-beta; not shown: FLAG tag of vector pFLAGCMV1
no binding: all assays above
